The target in this test is β-arrestin2 (UniProt P32121). As to the kind of experiment: BRET, MOR-Nluc and β-arrestin2-Venus. Conditions: for other: Emax, vehicle-subtracted BRET ratio: reference: vehicle.

For the substance “mu-opioid receptor (MOR, mMOR) (from UniProt P42866) DAMGO, 10 min”, the other: Emax, vehicle-subtracted BRET ratio (sites T370,S375,T376,T379) turned out to be 0.07 BRET ratio.
With “mu-opioid receptor (MOR, mMOR) (from UniProt P42866) morphine”, for the setting “reference: DAMGO, sites T376,T379”, the percent of reference result was “weaker; reference 100”.
Consider “mu-opioid receptor (MOR, mMOR) (from UniProt P42866) morphine, 10 min”, for which the other: Emax, vehicle-subtracted BRET ratio (sites S375) was 0.008 BRET ratio.

The record behind these values is article PMC11297201.
